# According to patent US20110059095A1 (Regeneron, published 2011):
# T1: C-terminal biotinylated human PAR-2 peptide SEQ ID NO:880 (Asp-43 to Ala) (human, not fully specified; C-terminal biotin (K-B))
# T1 construct: alanine-scan mutant
# T1 peptide: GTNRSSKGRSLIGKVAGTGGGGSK
# T2: C-terminal biotinylated human PAR-2 peptide SEQ ID NO:878 (Lys-41 to Ala) (human, not fully specified; C-terminal biotin (K-B))
# T2 construct: alanine-scan mutant
# T2 peptide: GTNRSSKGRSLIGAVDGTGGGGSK
# T3: C-terminal biotinylated human PAR-2 peptide SEQ ID NO:872 (Gly-35 to Ala) (human, not fully specified; C-terminal biotin (K-B))
# T3 construct: alanine-scan mutant
# T3 peptide: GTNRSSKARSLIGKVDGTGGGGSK
# T4: C-terminal biotinylated human PAR-2 peptide SEQ ID NO:882 (Thr-45 to Ala) (human, not fully specified; C-terminal biotin (K-B))
# T4 construct: alanine-scan mutant
# T4 peptide: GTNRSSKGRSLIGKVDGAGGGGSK
# T5: C-terminal biotinylated human PAR-2 peptide SEQ ID NO:879 (Val-42 to Ala) (human, not fully specified; C-terminal biotin (K-B))
# T5 construct: alanine-scan mutant
# T5 peptide: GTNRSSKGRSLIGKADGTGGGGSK
# T6: C-terminal biotinylated human PAR-2 peptide SEQ ID NO:875 (Leu-38 to Ala) (human, not fully specified; C-terminal biotin (K-B))
# T6 construct: alanine-scan mutant
# T6 peptide: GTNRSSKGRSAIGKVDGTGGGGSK
# T7: C-terminal biotinylated human PAR-2 peptide SEQ ID NO:874 (Ser-37 to Ala) (human, not fully specified; C-terminal biotin (K-B))
# T7 construct: alanine-scan mutant
# T7 peptide: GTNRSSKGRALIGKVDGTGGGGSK
# T8: C-terminal biotinylated human PAR-2 peptide SEQ ID NO:873 (Arg-36 to Ala) (human, not fully specified; C-terminal biotin (K-B))
# T8 construct: alanine-scan mutant
# T8 peptide: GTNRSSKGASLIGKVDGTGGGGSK
# T9: C-terminal biotinylated human PAR-2 peptide SEQ ID NO:877 (Gly-40 to Ala) (human, not fully specified; C-terminal biotin (K-B))
# T9 construct: alanine-scan mutant
# T9 peptide: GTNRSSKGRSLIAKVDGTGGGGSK
# T10: C-terminal biotinylated human PAR-2 peptide SEQ ID NO:881 (Gly-44 to Ala) (human, not fully specified; C-terminal biotin (K-B))
# T10 construct: alanine-scan mutant
# T10 peptide: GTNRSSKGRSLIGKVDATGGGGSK
# T11: C-terminal biotinylated human PAR-2 peptide SEQ ID NO:876 (Ile-39 to Ala) (human, not fully specified; C-terminal biotin (K-B))
# T11 construct: alanine-scan mutant
# T11 peptide: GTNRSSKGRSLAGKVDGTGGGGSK
# T12: Peptide D (N-terminal domain of human PAR-2-mouse IgG2a) (Human)
# T12 chain: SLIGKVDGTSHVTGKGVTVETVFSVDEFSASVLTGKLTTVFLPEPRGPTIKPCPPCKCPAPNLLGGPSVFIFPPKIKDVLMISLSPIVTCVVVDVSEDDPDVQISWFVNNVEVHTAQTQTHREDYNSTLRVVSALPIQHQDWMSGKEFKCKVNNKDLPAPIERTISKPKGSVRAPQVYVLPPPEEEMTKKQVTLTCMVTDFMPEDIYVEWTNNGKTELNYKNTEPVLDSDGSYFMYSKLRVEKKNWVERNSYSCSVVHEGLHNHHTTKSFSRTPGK
# B1: H4H581P (antibody, human IgG4, V domains shown)
# VH: QVQLVESGGGVVQPGRSLRLSCVASGFTFSRYGIHWVRQAPGKGLEWVIVISYDGINKYYADSVKGRFTISRDNSKNTVYLQMNSLRAEDTAVYYCAKGDFWSGYFDYWGQGTLVTVSS
# VL: DIVMTQTPLSSPVTLGQPASISCRSSQSLVHSDGNTYLSWLHQRPGQPPRLLIYKISNRFSGVPDRFSGSGAGTDFTLQISRVEAEDVGIYYCMQATQFPTFGGGTKVEIK
# notes: also called mAb H4H581P; H1H581P variable regions
# B2: H4H588N (antibody, human IgG4, V domains shown)
# VH: EVQLLESGGGLVQPGGSLRLSCAASGFTFSSYAMTWVRQAPGKGLYWVSAISGGRGSAYYADSVKGRFTISRDNSKNTLYLQMNSLRAEDTAVYYCAKEGDSGYDLAYWGRGTLVTVSS
# VL: DIQMTQSPSSLSASVGDRVTITCRARQGISNNLAWLQQKPGKAPKSLIYAASSLQSGIPSKFSGSGSGTYFTLTISSLQPEDFATYYCQQYKSSPLTFGGGTKVEIK
# notes: also called H2M588N variable regions
# Legend:
# [1] = target: T1, C-terminal biotinylated human PAR-2 …; assay: alanine scan by biolayer interferometry (Octet Red): C-terminal biotin peptide on streptavidin tips, 200 nM antibody; T1/2 relative to wild-type peptide SEQ ID NO:871
# Description: (§1) In order to more particularly identify the amino acids of PAR-2 with which the PAR-2 antibodies interact, an alanine scanning study was carried out using peptides comprising the activating PAR-2 protease cleavage site.
# (§2) The ability of each peptide mutant to bind to PAR-2 antibodies was measured using biolayer interferometry (Octet Red; ForteBio). Each peptide (2.5 μg/ml) was captured on streptavidin coated biosensor tips (Octet SA sensor) for 10 seconds. To measure binding and dissociation between each peptide and PAR-2 antibody, the peptide-coated biosensors were contacted with 200 nM solutions of PAR-2 antibodies for 5 minutes (binding) followed by transfer to buffer with no antibody for 10 min (dissociation). […] The results are expressed as percent binding and percent T_{1/2} relative to WT peptide (Tables 24-28).
# [2] = target: T2, C-terminal biotinylated human PAR-2 …; assay: as above
# Description: as §1, §2
# [3] = target: T3, C-terminal biotinylated human PAR-2 …; assay: as above
# Description: as §1, §2
# [4] = target: T4, C-terminal biotinylated human PAR-2 …; assay: as above
# Description: as §1, §2
# [5] = target: T5, C-terminal biotinylated human PAR-2 …; assay: as above
# Description: as §1, §2
# [6] = target: T6, C-terminal biotinylated human PAR-2 …; assay: as above
# Description: as §1, §2
# [7] = target: T7, C-terminal biotinylated human PAR-2 …; assay: as above
# Description: as §1, §2
# [8] = target: T8, C-terminal biotinylated human PAR-2 …; assay: as above
# Description: as §1, §2
# [9] = target: T9, C-terminal biotinylated human PAR-2 …; assay: as above
# Description: as §1, §2
# [10] = target: T10, C-terminal biotinylated human PAR-2 …; assay: as above
# Description: as §1, §2
# [11] = target: T11, C-terminal biotinylated human PAR-2 …; assay: as above
# Description: as §1, §2
# [12] = target: T8, C-terminal biotinylated human PAR-2 …; assay: BLI Exp2
# Description: as §1, §2
# [13] = target: T12, Peptide D (N-terminal domain of human …); assay: peptide ELISA
# [14] = target: full length human PAR-2 (human, UniProt P55085 26-397); assay: cell-based or functional assay
# Chain of full length human PAR-2 (P55085 26-397 G138A limits assumed): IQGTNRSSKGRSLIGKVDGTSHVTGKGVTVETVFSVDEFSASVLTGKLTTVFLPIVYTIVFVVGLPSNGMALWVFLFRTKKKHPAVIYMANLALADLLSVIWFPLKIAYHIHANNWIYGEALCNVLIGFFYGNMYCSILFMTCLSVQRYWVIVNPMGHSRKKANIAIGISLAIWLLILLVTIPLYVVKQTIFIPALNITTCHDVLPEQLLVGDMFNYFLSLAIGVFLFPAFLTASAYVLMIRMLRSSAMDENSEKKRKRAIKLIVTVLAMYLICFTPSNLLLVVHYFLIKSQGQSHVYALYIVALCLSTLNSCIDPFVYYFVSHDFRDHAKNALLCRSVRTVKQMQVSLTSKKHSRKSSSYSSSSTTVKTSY
Binder,percent of T1/2 relative to wild-type peptide (average of duplicate experiments) [1] [%],percent of T1/2 relative to wild-type peptide (average of duplicate experiments) [2] [%],percent of T1/2 relative to wild-type peptide (average of duplicate experiments) [3] [%],percent of T1/2 relative to wild-type peptide (average of duplicate experiments) [4] [%],percent of T1/2 relative to wild-type peptide (average of duplicate experiments) [5] [%],percent of T1/2 relative to wild-type peptide (average of duplicate experiments) [6] [%],percent of T1/2 relative to wild-type peptide (average of duplicate experiments) [7] [%],percent of T1/2 relative to wild-type peptide (average of duplicate experiments) [8] [%],percent of T1/2 relative to wild-type peptide (average of duplicate experiments) [9] [%],percent of T1/2 relative to wild-type peptide (average of duplicate experiments) [10] [%],percent of T1/2 relative to wild-type peptide (average of duplicate experiments) [11] [%],% Rel Binding [12] [%],% Rel T1/2 [12] [%],binding result [13],"IC50, calcium mobilization FLIPR, 100 nM Trypsin [14] [nM]"
B1,20,56,118,112,1,0.2,5,106,24,121,0.1,105,90,binds,55
B2,4.5,84,177,64,0.5,71,85,140,0.5,1,22,115,180,binds,29.5
